Laboratory results taken from US20110165660A1, “ENGINEERED MICROORGANISMS WITH ENHANCED FERMENTATION ACTIVITY” (VERDEZYNE, INC., priority 2009, published 2011).
“And” between values parts separate entries of the source, which are not always exact repeats. Equal values may be shown once.

Experiments:
[1] = target: T1, Piromyces strain E2 xylose isomerase, native (XI-P), SEQ ID NO: 35 (gene SEQ ID NO: 34) (Piromyces sp. E2, UniProt A0ACD6B9F5); test: Xylose isomerase kinetics (SDH-coupled, NADH, A340), with and without xylitol; format: biochemical; details: about 0 to about 50 mM xylitol; pH 7.5, about 30° C.
T1 construct: soluble whole cell extract; SDH-coupled
T1 sequence (A0ACD6B9F5 1-437): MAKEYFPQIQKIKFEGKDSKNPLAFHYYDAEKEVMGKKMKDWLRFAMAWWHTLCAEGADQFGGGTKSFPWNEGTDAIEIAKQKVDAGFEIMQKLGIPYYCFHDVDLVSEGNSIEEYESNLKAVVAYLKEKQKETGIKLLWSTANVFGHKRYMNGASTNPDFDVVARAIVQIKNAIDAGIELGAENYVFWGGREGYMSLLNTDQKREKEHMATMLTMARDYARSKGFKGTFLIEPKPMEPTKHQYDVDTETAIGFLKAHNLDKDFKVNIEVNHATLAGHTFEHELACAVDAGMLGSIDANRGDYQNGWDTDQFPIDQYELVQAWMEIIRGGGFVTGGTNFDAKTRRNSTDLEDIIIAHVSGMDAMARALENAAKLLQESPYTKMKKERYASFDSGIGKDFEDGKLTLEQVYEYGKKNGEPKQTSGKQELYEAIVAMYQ
Protocol: (§1) About 20 μg of soluble whole cell extract was incubated in the presence of 100 mM Tris, pH 7.5, 10 mM MgCl2, 0.15 mM NADH (Sigma, St. Louis, Mo.), and about 2 U sorbitol dehydrogenase (Roche) at about 30° C. […] A Beckman DU-800 was utilized with an Enzyme Mechanism software package (Beckman Coulter, Inc.), and the change in the A340 was monitored for 2-3 minutes.
(§2) Approximately 20 μg of soluble whole cell extract from each transformed cell line, prepared using Y-PER plus reagent as described above, was incubated in a solution containing about 100 mM Tris, pH 7.5, 10 mM MgCl ? 2, 0.15 mM NADH (Sigma, St. Louis, Mo.), and 2 U Sorbitol Dehydrogenase (SDH) (Roche, Indianapolis, Ind.) at about 30° C. […] A Beckman DU-800 spectrophotometer was utilized with an Enzyme Mechanism software package (Beckman Coulter, Inc, Brea, Calif.), and the change in the A340 was monitored for 2-3 minutes. […]
(§3) Approximately 20 μg of soluble whole cell extract from each transformed cell line was prepared using Y-PER plus reagent as described above was incubated in a solution containing about 100 mM Tris, pH 7.5, 10 mM MgCl ? […] A Beckman DU-800 spectrophotometer was utilized with an Enzyme Mechanism software package (Beckman Coulter, Inc, Brea, Calif.), and the change in the A340 was monitored for 2-3 minutes.

[2] = target: T2, Ruminococcus flavefaciens strain 17 (Siijpesteijn 1948) xylose isomerase, native (XI-R), SEQ ID NO: 31 (gene SEQ ID NO: 29/30) (Ruminococcus flavefaciens, UniProt Q9S306); test: as above; format: biochemical; details: about 0 to about 50 mM xylitol; pH 7.5, about 30° C.
T2 construct: made in house; host or cells: Saccharomyces cerevisiae BY4742 (p426GPD); soluble whole cell extract, not purified
T2 sequence (Q9S306 1-438): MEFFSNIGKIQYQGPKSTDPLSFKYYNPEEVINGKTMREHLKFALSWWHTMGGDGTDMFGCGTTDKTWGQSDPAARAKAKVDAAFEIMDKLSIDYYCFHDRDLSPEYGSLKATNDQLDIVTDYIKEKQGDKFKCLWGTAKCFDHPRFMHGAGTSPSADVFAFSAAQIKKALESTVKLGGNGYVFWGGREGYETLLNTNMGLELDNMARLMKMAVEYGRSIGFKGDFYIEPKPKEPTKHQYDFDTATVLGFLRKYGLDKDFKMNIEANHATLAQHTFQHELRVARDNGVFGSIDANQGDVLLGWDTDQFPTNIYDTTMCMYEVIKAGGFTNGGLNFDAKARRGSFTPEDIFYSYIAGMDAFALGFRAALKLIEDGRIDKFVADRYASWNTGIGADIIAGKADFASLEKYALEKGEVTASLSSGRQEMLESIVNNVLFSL
Protocol: as §1, §2, §3

[3] = target: T3, Ruminococcus flavefaciens xylose isomerase, codon-optimized gene variant (XI-R-COOP), gene SEQ ID NO: 33 (Ruminococcus flavefaciens, UniProt Q9S306); test: as above; format: biochemical; details: xylose about 40 to about 500 mM; pH 7.5, about 30° C.
T3 sequence (Q9S306 1-438): T2 sequence (Q9S306 1-438)
Protocol: An additional variant of the native R. flavefaciens xylose isomerase gene (XI-R-COOP) was prepared in which all of the codons were optimized for expression in Saccharomyces cerevisiae. This variant gene was synthesized by IDT DNA Inc. and the sequence is set forth below as SEQ ID NO: 33.

[4] = test system: Ruminococcus flavefaciens FD-1 (Ruminococcus_FD1) xylose isomerase, SEQ ID NO: 110; test: Kinetics of additional xylose isomerase candidates (Km and specific activity); format: biochemical; details: xylose 40 to 500 nM; crude S. cerevisiae extract
Excerpt: The results are show in FIG. 25.

[5] = test system: xylose isomerase activity; test: Heterologous xylose isomerase expression in engineered yeast (active yes/no); details: xylose isomerase of the donor organism expressed in engineered yeast (S. cerevisiae)
xylose [6] = test: In vivo evaluation of xylose isomerase constructs in C5 strain: xylose fermentation, aerobic then anaerobic (ethanol, xylose, glucose, OD600, dry cell weight); format: cell-based, Saccharomyces cerevisiae; details: final sample at 372 hours
Excerpt: The engineered strain was designed to include the following genetic modifications: the native Pho13 gene (alkaline phosphatase specific for p-nitrophenyl phosphate) was disrupted by inserting a construct containing the native TLK1 gene (Transketolase-1); the native aldose reductase gene (Gre3) was disrupted by inserting a construct containing the native high-affinity glucose transporter-7 gene (HXT7); the native glucose-repressible alcohol dehydrogenase II gene (adh2) was disrupted by inserting a construct containing the native xylulokinase gene (XYLK); and the native orotidine-5′ phosphate decarboxylase gene (ura3) was disrupted by inserting a construct containing the native transaldolase 1 gene (TAL1). The resulting strain had the following genotype: pho13::TKL1, gre3::HXT7, adh-2::XYLK, ura3::TAL1.
The C5 strain was transformed using standard protocols with either p426GPD (as a control) or the chimeric variants XI-R, XI-Rp5, XI-Rp10, or XI-Rp15. The transformed cells were grown on SC-glucose minus uracil initially and then passaged onto SC-xylose minus uracil. Cultures of each of the above constructs were made in SC-xylose minus uracil—and grown for one week. The cultures were grown aerobically at 30° C. with 250 rpm agitation, 1 vvm sparge of process air, 21% O2. The pH was controlled at about 5.0 with 1N NaOH. […] At 24 hours elapsed fermentation time the fermentation was switched to anaerobic conditions. […] Oxygen was purged with 100% N2 sparge at 1 vvm until percent O2 was below 1%. Aeration was then set at 0.25 vvm 100% N2.
The final sample also measured biomass by dry cell weight.

xylose [7] = test: Industrial yeast strain BF903 with Ruminococcus xylose isomerase: aerobic growth and xylose consumption on YP-xylose; format: cell-based, Saccharomyces cerevisiae; details: commercial yeast strain BF903, YP-xylose, 30° C., 7 days, FIG. 11
Protocol: A commercially available industrial diploid strain of Saccharomyces cerevisiae (strain BF903; “Stillspirits” triple distilled yeast, Brewcraft, Albany, New Zealand; available at Hydrobrew, Oceanside, Calif.) was obtained and was made competent for transformation using known yeast cell transformation procedures. […] Transformed yeast containing each construct were grown overnight aerobically in a 15 ml culture tube on YPD media containing 2% glucose. After about 24 hours, about 25 ml of YP media containing 2% glucose and 100 μg/ml G418 was seeded with the cells at an initial OD600 of 0.5 in a 250 ml Erlenmeyer flask and grown aerobically at 30° C. The cultures were then passaged once every 7 days into fresh media, also at an initial OD600 of 0.5.
Measurements were taken of the cell optical density (OD600) to assess cell density and plated onto YPD with 100 μg/ml G418 to ensure that the plasmid was stable. […] The strains were then grown overnight in YPD (with 100 μg/ml G418) and used to inoculate about 50 ml YP-xylose (with 100 μg/ml G418) into disposable 250 ml Erlenmeyer flasks with vented caps at an initial OD600 of about 1. The cultures were allowed to grow aerobically at 30° C. at 200 rpm for 7 days.

xylose [8] = test: Industrial yeast strain BF903 with Ruminococcus xylose isomerase: sealed serum bottles on YP plus xylose (xylose utilization, ethanol, cell growth); format: cell-based, Saccharomyces cerevisiae; details: FIG. 12
Protocol: The serum bottles were sealed with a butyl rubber stopper to prevent air exchange. As a result, the cultures became anaerobic once the available oxygen in the serum bottle was utilized. In general, anaerobiosis (e.g., the onset of anaerobic conditions) occurred a few hours after the culture was inoculated. Xylose utilization, ethanol production and cell growth were measured every twenty four hours.

OC[C@@H](O)[C@H](O)[C@@H](O)CO [xylitol]
Ki [1]: 4.79 mM | Ki [2]: 43.6 mM

OC1OC[C@@H](O)[C@H](O)[C@H]1O (some centres unmarked) [xylose]
Km [3]: 100 mM | Km [4]: 71.9 mM

B1: Ruminococcus flavefaciens: native xylose isomerase from Ruminococcus flavefaciens strain 17 (SEQ ID NO: 31) (protein, listed as Ruminococcus flavefaciens)
chain: T2 sequence (Q9S306 1-438)
Active? (yes/no) [5]: Yes | Glucose (xylose [6]): 0 g/L | Ethanol (xylose [6]; listed as XI-R): 15.65 g/L and 15.5 g/L | Xylose (xylose [6]; listed as XI-R): 3.14 g/L and 3.85 g/L | xylose consumption versus vector control (xylose [7]): more efficient at consuming xylose | cell density versus vector only control (xylose [8]): grew to a higher cell density | ethanol production from xylose versus vector only control (xylose [8]): produced more ethanol
